Experimental data from the supplement of paper PMC12855868.

B1: library; numbered along this chain (parent)
chain: MAAAGGARLLRAASAVLGGPAGRWLHHAGSRAGSSGLLRNRGPGGSAEASRSLSVSARARSSSEDKITVHFINRDGETLTTKGKVGDSLLDVVVENNLDIDGFGACEGTLACSTCHLIFEDHIYEKLDAITDEENDMLDLAYGLTDRSRLGCQICLTKSMDNMTVRVPETVADARQSIDVGKTS

Variants of: B1
Assay: scaled log2 fold change in cell abundance, elesclomol vs control (0 = silent mean, 1 = nonsense mean) (scaled log2 ratio); higher = higher viability under elesclomol (loss of FDX1 cuproptosis function)
Settings: glucose 10 mM
[1] = with ABC1 FDX1 KO, elesclomol 5 nM, 14 days
[2] = with HEK293T FDX1 KO, elesclomol 40 nM, 11 days
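Further: variant abundance is its share of total variant reads in each endpoint sample, from next-generation sequencing of the integrated ORF PCR-amplified out of genomic DNA.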

Variant	scaled log2 fold change [1]	scaled log2 fold change [2]
E134R	1.23	1.26
E134T	1.02	0.834
E134V	0.638	0.419
E134Y	0.977	2.18
E134S	0.926	0.571
E134L	1.1	1.21
E134W	1.07	1.32
E134Q	0.525	-0.44
E134P	1.22	1.01
E134F	1.23	1.01
E134C	0.676	1.13
E134H	0.345	0.225
E134N	1.16	0.994
E134K	1.1	1.28
E134G	1.21	0.684
E134A	0.628	0.137
E134D	0.911	1.21
E134I	1.03	0.865
E134M	0.946	0.587
I130G	-0.279	-0.433
I130L	-0.083	-0.116
I130D	0.59	0.0795
I130H	0.0428	0.239
I130C	-0.188	1.38

Variant	scaled log2 fold change [1]	scaled log2 fold change [2]
I130A	0.429	
I130W	-0.285	-0.314
I130T	-0.0905	-0.0285
I130R	-0.234	0.125
I130V	0.000565	-0.448
I130F	0.211	-0.285
I130M	0.336	-0.481
I130S	0.236	0.715
I130E	-0.051	-0.419
I130K	-0.203	0.0187
I130Y	0.33	0.102
I130P	-0.462	-0.467
I130Q	0.0588	-0.458
I130N	-0.0924	0.234
A129K	-0.557	-0.17
A129Y	-0.538	
A129W	-0.08	1.07
A129E	-0.447	-0.333
A129M	-0.0116	
A129P	0.272	0.0261
A129H	-0.541	
A129S	0.0531	-0.075
A129C	-0.31	0.555
A129G	0.16	

Variant	scaled log2 fold change [1]	scaled log2 fold change [2]
A129R	0.464	-0.0758
A129I	0.162	-0.508
A129D	-0.23	0.439
A129V	0.217	0.196
A129L	0.598	1.27
A129F	0.044	-0.227
Y124D	0.088	0.872
Y124M	-0.133	-0.153
Y124I	0.367	0.0274
Y124H	0.148	1.04
Y124C	0.198	-0.0461
Y124S	0.413	0.62
Y124R	0.234	-0.258
Y124A	-0.0589	
Y124G	-0.0904	0.69
Y124K	0.0432	-0.66
Y124T	0.399	-0.214
Y124W	-0.403	-0.22
Y124V	-0.329	-0.724
Y124E	0.16	0.747
Y124N	0.36	1.01
Y124L	0.252	0.75
Y124F	-0.497	-0.225
Y124Q	0.286	-0.703

Variant	scaled log2 fold change [1]	scaled log2 fold change [2]
Y124P	0.511	0.253
I123F	-0.346	0.312
I123V	-0.0405	
I123L	-0.128	-0.00641
I123M	0.264	0.00397
I123N	-0.867	-0.142
I123S	0.133	0.206
I123T	0.223	0.679
I123W	-0.0593	-0.208
I123A	-0.0959	-0.0656
I123E	0.111	-0.217
I123C	0.148	0.505
I123K	0.336	0.365
I123Y	-0.0557	-0.336
I123D	0.248	0.132
I123P	0.506	-0.674
I123H	0.292	-0.438
I123G	0.293	
I123R	-0.34	0.123
I123Q	-0.0633	-0.755
L127W	0.322	0.0443
L127G	0.701	-0.0303
L127F	-0.388	-0.405
L127E	0.573	0.536

Variant	scaled log2 fold change [1]	scaled log2 fold change [2]
L127H	0.038	0.312
L127A	0.297	1.31
L127N	0.0507	1.27
L127Q	0.446	0.00947
L127Y	0.24	-0.426
L127S	0.442	0.345
L127K	0.682	0.253
L127M	0.152	0.302
L127R	0.785	0.151
L127D	0.521	-0.11
L127I	0.0723	0.119
L127V	0.0908	0.603
L127T	0.249	-0.0113
L127P	0.814	1.12
E125M	0.0258	
E125Q	-0.176	-0.00485
E125C	-0.817	0.0813
E125G	-0.304	-0.096
E125A	-0.503	-0.173
E125T	-0.0928	0.0298
E125R	0.109	-0.189
E125H	-0.583	-0.234
E125D	0.426	0.469
E125S	0.239	

Variant	scaled log2 fold change [1]	scaled log2 fold change [2]
E125W	-0.76	-0.135
E125Y	-0.278	-0.0436
E125L	0.17	0.357
E125F	-0.241	0.00284
E125N	-0.0561	-0.574
E125V	0.114	-0.317
E125P	-0.165	0.0466
E125K	0.48	0.921
E133T	0.0196	0.842
E133P	-0.087	0.243
E133F	-0.18	-0.56
E133H	-0.148	-0.764
E133N	-0.113	-0.0813
E133C	0.215	-0.346
E133S	-1.5	
E133Q	-0.239	-0.406
E133K	0.105	0.342
E133M	-0.152	-0.547
E133G	-0.151	-0.168
E133V	0.153	-0.0517
E133I	0.458	-0.339
E133D	0.319	0.453
E133R	0.274	0.00388
E133A	-0.216	1.27

Variant	scaled log2 fold change [1]	scaled log2 fold change [2]
E133W	-1.03	0.0959
E133Y	-0.281	0.898
E133L	-0.204	0.0198
K126Q	-0.973	-0.036
K126S	-0.46	-0.133
K126G	0.426	0.372
K126C	-0.0261	-0.165
K126L	-0.515	-0.357
K126T	-0.51	-0.395
K126A	-0.285	0.163
K126E	-0.285	0.945
K126P	0.252	0.147
K126W	0.411	0.186
K126D	0.116	0.255
K126R	-0.769	-0.286
K126Y	-0.263	0.0548
K126I	-0.0257	-0.476
K126N	-0.104	-0.19
K126H	0.0646	0.114
K126F	-0.00916	0.517
K126M	0.305	0.341
K126V	0.162	0.807
N135C	0.138	
N135L	0.151	0.661

Variant	scaled log2 fold change [1]	scaled log2 fold change [2]
N135P	0.887	0.821
N135K	-0.148	-0.129
N135S	0.055	-0.262
N135A	-0.0811	-0.437
N135E	-0.00674	0.0823
N135I	-0.261	0.197
N135F	0.44	-0.599
N135R	-0.532	1.02
N135M	-0.00864	-0.104
N135Q	0.215	-0.339
N135G	0.0707	-0.645
N135D	0.117	0.905
D132T	-0.0728	-0.282
D132I	-0.789	
D132R	-0.373	-0.177
D132W	-0.0682	-0.335
D132Q	0.014	0.0254
D132V	0.152	-0.737
D132A	-0.35	-0.0723
D132L	0.217	-0.447
D132E	0.299	0.371
D132C	-0.0894	-0.0904
D132H	0.104	-1.46
D132F	-0.0218	-0.336

Variant	scaled log2 fold change [1]	scaled log2 fold change [2]
D132S	-0.409	1.12
D132G	-0.0468	0.9
D132Y	0.176	1.12
D132N	-0.0637	
D132K	-0.0835	0.943
D132P	-0.221	-0.681
D132M	-0.07	-0.451
D128I	-0.0983	-0.34
D128N	-0.106	-0.13
D128Q	-0.253	
D128W	-0.0394	-0.406
D128F	-0.376	0.338
D128S	-0.519	1.1
D128R	-1.26	-0.293
D128C	0.113	0.174
D128M	-0.149	-0.00382
D128L	0.397	-0.761
D128V	0.419	-0.465
D128P	0.196	
D128H	0.277	
D128A	-0.474	-0.104
D128K	-0.0506	-0.0961
D128T	-0.378	
D128E	0.267	0.301

Variant	scaled log2 fold change [1]	scaled log2 fold change [2]
D128Y	-0.45	0.0308
D128G	0.0426	
H122Y	-0.259	
T131D	0.127	-0.23
T131P	0.137	-0.104
T131F	-1.03	0.443
T131E	0.357	-0.395
T131M	0.154	
T131S	0.0867	
T131G	0.277	
T131W	0.374	-0.135
T131Y	0.17	-0.668
T131Q	0.134	0.928
T131C	-0.2	-0.521
T131N	0.126	-0.681
T131H	-0.186	0.267
T131I	-0.0956	0.347
T131A	-0.777	0.0649
T131R	-0.448	0.487
T131V	-0.238	0.525
T131K	-0.138	2.11
T131L	-0.29	0.562
